B1: StTae4 (type VI amidase effector 4 from Salmonella typhimurium) (enzyme)
chain: MNRPSFNEAWLAFRKVNHSVADVGSIIGGNVGKNITGGYFQNACPIRMSYVLNATGFPIARNSPYAKVSGADNKFYIYRVNDMIDYLTHTMGKPDLIVNNPKQSDFIGKKGIIVVKGHGWSNARGHVTLWNGSICSDQCHLLNDPDNGPFVPEVGTLWILP
notes: Tae4, type VI amidase effector 4, S. Typhimurium, full length, amplified from genomic DNA; cloned into NcoI/XhoI of pET28at-plus (introduces an N-terminal TEV cleavage site); Se-Met-labelled protein was used for the crystal structure; The vector adds an N-terminal TEV cleavage site; the pull-down methods call the effectors 'native effector proteins'; source: E. coli BL21 (DE3), co-expressed with …
B2: EcTai4 (type VI amidase immunity 4 from Enterobacter cloacae), residues 19-117 (domain or fragment)
chain: QTLPDISTFSQQQIFENWVQNRCIGKIADSKSLKEDADASAAAWLEASNLPAENFEKADEVIVSLLKQKVGGTEPGHYQILKCTLIANSDAIRPLKSSK
notes: Tai4, type VI amidase immunity 4, E. cloacae, residues 19-117 without the N-terminal 18-residue signal peptide, amplified from genomic DNA; pET21a; Se-Met-labelled protein was used for the crystal structure; The construct of the His-EcTai4 of the pull-down is not described on its own; also called His-EcTai4; His-tag EcTai4; source: E. coli BL21 (DE3), co-expressed with StTae4, purified (crystal, …)

How the values were obtained:
[1] = biological target: B2; assay: SAXS; purified complex in solution at 1, 3 and 5 mg/ml; theoretical curve of one tetramer of the crystal fitted to the experimental data, discrepancy 1.625; settings: both partners purified
[2] = biological target: the molecule itself; assay: as above

Binder	stoichiometry N [1]	stoichiometry N [2]
B1	2 Tae4 molecules per Tai4 homodimer	
B2		2

Reference: article PMC3759425, “Insights into the Cross-Immunity Mechanism within Effector Families of Bacteria Type VI Secretion System from the Structure of StTae4-EcTai4 Complex” (PLoS ONE, 2013)
